The values that follow come from article PMC4452869.

Assay [1] concerns the target HIV-1 reverse transcriptase p66 (HIV-1). In words: SEC; HiLoad 26/60 superdex 200 column, p66 and p66∆PL run separately; 50 mM Tris–HCl, pH 8.0, 200 mM NaCl, 1 mM EDTA; 0.5 ml/min; 4 °C; absorbance at 280 nm; monomer to dimer. A general note: Size exclusion chromatography separates by hydrodynamic size, large species first.
Assay [2] shares this target. In words: NMR (1H-13C HMQC of Ile delta-methyl-labelled protein, time-dependent); [^13CH3-Ile]p66 homodimerization; successive 5.5-hr spectra after dimerization conditions were introduced; 25 mM Tris-HCl-d11 in D2O, pD 7.51, 100 mM KCl, 0.02% NaN3; 35 °C; apparent time constants; monomer to dimer.
For assay [3] the target is unchanged. In words: NMR (1H-13C HMQC of Ile delta-methyl-labelled protein, time-dependent); 45 µM [^13CH3-Ile]p66∆PL with 90 µM unlabeled p66 (twofold excess); 25 mM Tris-HCl-d11, pD 7.5, 100 mM KCl, 0.02% NaN3; successive 5.5-hr spectra; 35 °C; apparent time constants.
Assay [4] deals with HIV-1 reverse transcriptase p51 (HIV-1) (UniProt P03366). Nature of the assay: NMR (1H-13C HMQC of Ile delta-methyl-labelled protein); 150 µM [^13CH3-Ile]p51 in 25 mM Tris-HCl-d11 in D2O (pD 7.5), 800 mM KCl, 20 mM MgCl2, 0.02% NaN3 (high salt to stabilise the homodimer); monomer to dimer.

Usually stoichiometry N stands for a count of units in the complex or per binding partner.

“HIV-1 reverse transcriptase p66 (enzyme)”: in assay [1], the dimer/monomer ratio (percent dimer) worked out at 75 % dimer and the stoichiometry N worked out at 2. The apparent time constant of dimer formation (Ile382E resonance) in assay [2] was 2.4 h.

Turning to “p66∆PL, p66 deletion mutant lacking palm loop residues 219–230 (enzyme)”, in assay [3], the apparent time constant of growth of the dimer resonance (Ile47C) worked out at 8.8 h, the apparent time constant of monomer decay (Ile47M resonance) stood at 9.1 h, the apparent time constant of monomer decay (Ile393M resonance) worked out at 9.3 h and the mean monomer decay time constant is 9 h. Besides, in assay [3], the percent dimerized (limit reached) was 80 to 90%; the percent of the Ile47' intensity in the dimer species, initial spectra is 30 to 40%; the percent of the Ile47' intensity in the dimer species, limiting value was 80%.

In the case of “HIV-1 reverse transcriptase p51 (from UniProt P03366 600-1039) (natural protein)”, the percent dimer in assay [4] was determined as 90%.
